The results in this text go back to paper PMC6582352.

For this data set, the target named is CbAgo (Clostridium butyricum, UniProt P0DYD1 1-748). Kind of data set: single-molecule TIRM, immobilized CbAgo.

On to CCATCTGTCTTA (ssDNA, 5'-phosphate) [siDNA 12 nt (SM013)], for which the binding result is “binds”.
